Reference: patent publication US20220249369A1, “BIOLOGICAL BITS AS COMPUTABLE ELEMENTS WITHIN LIVING SYSTEMS” (GEORGIA TECH RESEARCH CORPORATION, priority 2018, published 2022)
Where no end group is shown, it is not given here. [ ]: non-standard residue; d: D form. The star is where a group is joined. 5FAM = O=C1OC2(c3ccc(O)cc3Oc3cc(O)ccc32)c2ccc(C(=O)*)cc21

What was measured:
plasmin = plasmin (Homo sapiens, UniProt P00747); test: Protease cleavage assay, U-gate on two-state protease bit; assay type: biochemical; conditions: n=3; for state probability (relative cleavage velocity) after first U-gate: plasmin exposed to state 0 and state 1 substrates
plasmin, sequence (P00747 581-810 limits assumed, species assumed): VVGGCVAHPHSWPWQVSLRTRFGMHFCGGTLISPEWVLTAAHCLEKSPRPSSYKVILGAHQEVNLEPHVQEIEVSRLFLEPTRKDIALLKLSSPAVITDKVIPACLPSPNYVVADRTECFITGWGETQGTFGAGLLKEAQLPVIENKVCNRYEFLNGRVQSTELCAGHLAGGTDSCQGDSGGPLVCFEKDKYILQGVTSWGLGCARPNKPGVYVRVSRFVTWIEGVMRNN
plasmin, sequence (P00747 97-580 partner limits assumed, species assumed): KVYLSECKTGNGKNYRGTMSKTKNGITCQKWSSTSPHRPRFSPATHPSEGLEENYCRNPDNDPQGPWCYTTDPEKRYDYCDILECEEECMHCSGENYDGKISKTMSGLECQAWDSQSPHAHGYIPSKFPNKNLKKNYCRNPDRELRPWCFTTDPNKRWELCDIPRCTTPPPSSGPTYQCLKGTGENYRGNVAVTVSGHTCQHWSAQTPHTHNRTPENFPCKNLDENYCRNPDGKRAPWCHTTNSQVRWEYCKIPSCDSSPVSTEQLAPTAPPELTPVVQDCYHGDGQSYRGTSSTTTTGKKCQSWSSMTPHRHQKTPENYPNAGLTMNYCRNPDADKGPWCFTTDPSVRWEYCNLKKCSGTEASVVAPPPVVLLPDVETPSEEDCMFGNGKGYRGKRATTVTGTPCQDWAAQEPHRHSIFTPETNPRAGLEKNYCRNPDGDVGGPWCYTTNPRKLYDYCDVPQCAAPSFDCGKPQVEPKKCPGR
Procedure: Protease cleavage assays: All protease cleavage assays were performed with a BioTek Cytation 5 Imaging Plate Reader, taking fluorescent measurements at 485/528 nm and 540/575 nm (excitation/emission) for read-outs measuring peptide substrates terminated with FITC (Fluorescein isothiocyanate) and 5-TAMRA (5-Carboxytetramethylrhodamine), respectively. Kinetic measurements were taken every minute over the course of 60-120 minutes at 37° C. West Nile Virus NS3 protease (WNVp) and Tobacco Etch Virus protease (TEVp), along with their substrates, inhibitors and buffers were obtained from Anaspec, Inc. (Fremont, Calif.). Phospholipase C (PLC), Phosphatidylinositol-Specific (from Bacillus cereus) was purchased from Thermo Fisher Scientific (Waltham, Mass.). Activity RFU measurements were normalized to time 0 measurement, and as such represent fold change in signal. Granzyme B (GzmB) was purchased from PeproTech, Inc. (Rocky Hill, N.J.). Thrombin and Factor XIa were purchased from Haematologic Technologies (Essex, Vt.). Outer Membrane Protease T (OmpT, Protease 7) was purchased from Lifespan Biosciences (Seattle, Wash.). C1r was purchased from Millipore Sigma (Burlington, Mass.). GzmB, Thrombin, Factor XIa, and C1r fluorescent peptide substrates were custom ordered from CPC Scientific (Sunnyvale, Calif.). OmpT fluorescent peptide substrate was custom ordered from Genscript (Piscataway, N.J.). See Table 1 and Table 2 for more information regarding proteases, substrates, and inhibitors.
For FIGS. 5G-5I and 5N-5Q: 2 uL of thrombin (10.1 mg/mL) or plasmin (6.9 mg/mL) were added to 18 uL of respective state 1 or state 0 substrate (2 uM). Velocities of Thrombin and Plasmin cutting their respective state 1 or state 0 substrates were calculated over the first 5 minutes of incubation. These velocities were normalized by the sum of the state 1 and state 0 velocity. Therefore, the values plotted as probability in FIG. 4 are relative velocities. […]

DH5α Escherichia coli = assay type: cell-based; conditions: 37° C., 1 hour
Description: FIGS. 8A-8B show the results of unlocking peptide caged liposomes with increasing peptide crosslinking densities (levels 0-8). Eight levels of increasing peptide cage crosslinking were used to determine the number of bacteria required to unlock each level. FIG. 8C is a graph showing bacterial cytotoxicity measurement of drug-loaded liposomes. Conditions are moving from left to right: Bacteria only control, bacteria plus free drug, bacteria plus drug-loaded liposome without lipase, and bacteria plus drug-loaded liposome with lipase. Samples were incubated with bacteria at 37° C. for eight hours and plated. CFU were quantified to estimate bacteria viability. Error bars are plotted as standard deviation (n=3). RFU stands for “Relative Fluorescence Unit” and is plotted as fold change (FC) from initial fluorescence at time=0. Bacterial Culture and Cytotoxicity Assay: DH5α Escherichia coli were cultured in LB broth (Lennox) at 37° C. and plated on LB agar (Lennox) plates. LB broth was purchased from Millipore Sigma (Burlington, Mass.) and LB agar was purchased from Invitrogen (Carlsbad, Calif.). AMP and locked AMP were custom ordered from Genscript (Piscataway, N.J.). […] Bacterial cell viability was measured by making eight 10-fold serial dilutions, and plating three 10 μL spots on an LB agar plate. Plates were incubated overnight at 37° C., and CFUs were counted. […]

Row | Substance | state probability (relative cleavage velocity) after first U-gate (plasmin) [%] | state 0 probability (relative cleavage velocity) after second U-gate (plasmin; state 0 substrate added in large molar excess) [%] | cytolytic activity against bacteria compared to untreated controls (DH5α Escherichia coli; locked drug without protease) | reduction in bacterial colonies (DH5α Escherichia coli; protease-cleaved (TEVp))
1 | 5FAM-GLQRALEI-K(CPQ2)-k-C (5FAM-GLQRALEIK(CPQ2)[dK]C) [CC9, quenched fluorescent plasmin substrate (state 0)] | 45 | 93 |  | 
2 | 5FAM-KYLGRSYKV-K(CPQ2)-C (5FAM-KYLGRSYKVK(CPQ2)C) [CC6, quenched fluorescent protease substrate (state 1)] | 55 |  |  | 
3 | EEEEEEEEENLYFQGRRRRRRRRR [Locked AMP p1, polyarginine AMP locked by polyglutamic acid via TEV-cleavable linker] |  |  | no significant cytolytic activity | significant reduction in bacterial colonies
